Source: the supplement of paper PMC10567573

B1: PTPRD (parent)
chain: PVVSMDLDPQPITDEEEGLIWVVG
B2: MYBL2 (parent)
chain: FPNRTDQQCQYRWLRVLNPDLVKG

Variants of: B1
Assay: protein stability index of a GFP-peptide fusion (GPS, HEK-293T) (PSI 1-6); higher = more stable
Details: c terminus: a fixed tail appended
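Further: lentivirally expressed fusions sorted by FACS into six bins by GFP to DsRed ratio, PSI derived from sequencing read proportions per bin multiplied by bin number.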

Protein stability index of substitutions, site by site:
V3: G 3.98, P 3.82, K 3.48, Y 3.88, F 3.86, H 3.38, I 3.49, L 3.74, T 4.66, W 4.09, M 3.61, Q 3.87, S 3.18, E 4.81, N 3.92, D 3.91, A 3.17
S4: F 2.65, R 3.82, Y 1.99, P 4.45, G 4.17, L 2.89, M 2.75, V 2.42, N 4.01, E 5.11, I 2.28, H 3.31, W 1.83, Q 4.02, T 3.73, D 3.92, C 3.56
P1: F 1.19, Q 3.81, C 3.12, E 3.2, L 1.79, G 3.77, W 2.17, V 1.86, T 2.22, N 3.58, H 3.02, Y 1.52, R 2.62, D 4.28
D6: C 3.6, H 3.24, F 2.36, E 4.24, A 4.22
M5: N 4.7, G 5.16, T 4.01, K 4.64, F 3.48, A 4.97, W 3.51, Q 4.62, H 4.66, S 3.77, Y 3.54, C 4.64, D 4.71, V 3.92, R 4.31, L 3.97
V2: H 3.67, C 4.26, Y 3.56, G 4.23, M 4.2, L 3.93, I 3.05, D 3.95, P 4.05, A 4.31, R 4.6, K 2.77, E 4.23, T 4.09, S 4.51, N 3.84, F 3.16, Q 3.94

Variants of: B2
Assay: as above
Details: c terminus: a fixed tail appended

Protein stability index, by site and new letter:
K23: I 1.95, W 1.27, L 1.64, N 2.11, R 2.21, A 1.22, C 3.33, H 1.7, V 1.4, E 1.89, S 1.26, D 1.97, Y 1.38, G 1.8, F 2.47, M 1.5, T 1.59, Q 2.1, P 2.06
G24: A 1.41, Q 1.91, P 2.26, N 2.44, F 1.85, H 1.41, M 2.18, S 1.68, I 1.43, R 1.74, T 1.87, C 1.89, K 2.01, Y 1.85, L 2.35, W 1.55, V 1.71, D 1.94, E 2.02
L21: Y 1.98, C 2.18, N 2.37, H 1.48, D 2.12, E 2.43, T 2.26, K 2.01, P 2.83, M 2.27, A 1.88, G 1.66, F 2.26, I 2.85, V 2.26, R 2.31, S 2.17, Q 2.08, W 1.91
D20: W 2.27, V 1.14, Y 1.76, T 1.54
V22: I 2.04, M 2.08, C 1.79, Q 1.54, A 1.71, P 1.83, K 1.64, G 2, D 2.02, T 1.95, R 1.66, Y 2.01, E 1.55, H 2.74, F 1.59, S 2.25, L 2.21, N 2.01, W 2.11
